In patent publication US20070078092A1 (CUREGENICS, published 2007):
Numbered stars: 1 amine (or outer) side, 2 acyl side, 3 side chain; on linkers, the order of the positions; unused ones are H or OH. Square brackets hold non-standard residues; d marks the D form. * marks the point of attachment. Cholesteryloxycarbonyl = CC(C)CCC[C@@H](C)[C@H]1CC[C@H]2[C@@H]3CC=C4C[C@@H](OC(=O)*)CC[C@]4(C)[C@H]3CC[C@]12C; Ser(Me) = COC[C@H](N[*:1])C(=O)[*:2]; hLeu = CC(C)CC[C@H](N)C(=O)O; Nva = CCC[C@H](N)C(=O)O; Dap = NC[C@H](N)C(=O)O

Target: protein kinase B (PKB)
Assay: cell-based or functional assay

IC50, in vitro kinase assay PKB	Binder
1 µM	Cholesteryloxycarbonyl-GGGGGGRPR[Nva]Y[Dap][hLeu]-NH2 (SMILES CCC[C@H](NC(=O)[C@H](CCCNC(=N)N)NC(=O)[C@@H]1CCCN1C(=O)[C@H](CCCNC(=N)N)NC(=O)CNC(=O)CNC(=O)CNC(=O)CNC(=O)CNC(=O)CNC(=O)O[C@H]1CC[C@@]2(C)C(=CC[C@H]3[C@@H]4CC[C@H]([C@H](C)CCCC(C)C)[C@@]4(C)CC[C@@H]32)C1)C(=O)N[C@@H](Cc1ccc(O)cc1)C(=O)N[C@@H](CN)C(=O)N[C@@H](CCC(C)C)C(N)=O) [PTR 6336]
0.2 µM	Cholesteryloxycarbonyl-RPR[Nva]Y[Dap][hLeu][dK][dK][dK]-NH2 (SMILES CCC[C@H](NC(=O)[C@H](CCCNC(=N)N)NC(=O)[C@@H]1CCCN1C(=O)[C@H](CCCNC(=N)N)NC(=O)O[C@H]1CC[C@@]2(C)C(=CC[C@H]3[C@@H]4CC[C@H]([C@H](C)CCCC(C)C)[C@@]4(C)CC[C@@H]32)C1)C(=O)N[C@@H](Cc1ccc(O)cc1)C(=O)N[C@@H](CN)C(=O)N[C@@H](CCC(C)C)C(=O)N[C@H](CCCCN)C(=O)N[C@H](CCCCN)C(=O)N[C@H](CCCCN)C(N)=O) [PTR 6346]
1 µM	Cholesteryloxycarbonyl-GGGGRPR[Nva]Y[Dap][hLeu]-NH2 (SMILES CCC[C@H](NC(=O)[C@H](CCCNC(=N)N)NC(=O)[C@@H]1CCCN1C(=O)[C@H](CCCNC(=N)N)NC(=O)CNC(=O)CNC(=O)CNC(=O)CNC(=O)O[C@H]1CC[C@@]2(C)C(=CC[C@H]3[C@@H]4CC[C@H]([C@H](C)CCCC(C)C)[C@@]4(C)CC[C@@H]32)C1)C(=O)N[C@@H](Cc1ccc(O)cc1)C(=O)N[C@@H](CN)C(=O)N[C@@H](CCC(C)C)C(N)=O) [PTR 6332]
0.3 µM	Cholesteryloxycarbonyl-KKKRPR[Nva]Y[Dap][hLeu]-NH2 (SMILES CCC[C@H](NC(=O)[C@H](CCCNC(=N)N)NC(=O)[C@@H]1CCCN1C(=O)[C@H](CCCNC(=N)N)NC(=O)[C@H](CCCCN)NC(=O)[C@H](CCCCN)NC(=O)[C@H](CCCCN)NC(=O)O[C@H]1CC[C@@]2(C)C(=CC[C@H]3[C@@H]4CC[C@H]([C@H](C)CCCC(C)C)[C@@]4(C)CC[C@@H]32)C1)C(=O)N[C@@H](Cc1ccc(O)cc1)C(=O)N[C@@H](CN)C(=O)N[C@@H](CCC(C)C)C(N)=O) [PTR 6344]
1 µM	Cholesteryloxycarbonyl-GGGGGRPR[Nva]Y[Dap][hLeu]-NH2 (SMILES CCC[C@H](NC(=O)[C@H](CCCNC(=N)N)NC(=O)[C@@H]1CCCN1C(=O)[C@H](CCCNC(=N)N)NC(=O)CNC(=O)CNC(=O)CNC(=O)CNC(=O)CNC(=O)O[C@H]1CC[C@@]2(C)C(=CC[C@H]3[C@@H]4CC[C@H]([C@H](C)CCCC(C)C)[C@@]4(C)CC[C@@H]32)C1)C(=O)N[C@@H](Cc1ccc(O)cc1)C(=O)N[C@@H](CN)C(=O)N[C@@H](CCC(C)C)C(N)=O) [PTR 6334]
0.1 µM	Cholesteryloxycarbonyl-[dK][dK][dK][dK][dK][dK]RPR[Nva]Y[Ser(Me)][hLeu]-NH2 (SMILES CCC[C@H](NC(=O)[C@H](CCCNC(=N)N)NC(=O)[C@@H]1CCCN1C(=O)[C@H](CCCNC(=N)N)NC(=O)[C@@H](CCCCN)NC(=O)[C@@H](CCCCN)NC(=O)[C@@H](CCCCN)NC(=O)[C@@H](CCCCN)NC(=O)[C@@H](CCCCN)NC(=O)[C@@H](CCCCN)NC(=O)O[C@H]1CC[C@@]2(C)C(=CC[C@H]3[C@@H]4CC[C@H]([C@H](C)CCCC(C)C)[C@@]4(C)CC[C@@H]32)C1)C(=O)N[C@@H](Cc1ccc(O)cc1)C(=O)N[C@@H](COC)C(=O)N[C@@H](CCC(C)C)C(N)=O) [PTR 6338]
